These results are taken from the supplement of paper PMC10065799, “High-throughput profiling of sequence recognition by tyrosine kinases and SH2 domains using bacterial peptide display” (eLife, 2023).

For series [1], the system named is Fer (mouse). Kind of series: phosphorylation enrichment, bacterial display (enrichment ratio); higher = better substrate or ligand; peptides without Tyr show the background.
In series [2] the test system is AncSZ. The series is described as above.
The target of series [3] is EPHB1 (UniProt P54762). Described as above.
Series [4] addresses FGFR1 (UniProt P11362). Described as above.
Series [5] addresses MERTK (UniProt Q12866). Described as above.
Series [6] concerns the target Fyn (UniProt P06241). Described as above.
The subject of series [7] is c-Src. The description is as above.
Series [8] addresses EPHB2 (UniProt P29323). Described as above.
Series [9] deals with Fes (UniProt P07332). The description is as above.
Series [10] has as its target Jak2 (UniProt O60674). Described as above.
For series [11], the target named is Hck (UniProt P08631). The description is as above.
Series [12] deals with FGFR3 (UniProt P22607). The series is described as above.
Series [13] has as its system c-Abl (mouse). The description is as above.
For series [14], the target named is c-Src SH2. Put plainly: SH2 binding enrichment of the phosphorylated peptide, bacterial display (enrichment ratio); higher = better substrate or ligand; peptides without Tyr show the background.
The target of series [15] is Grb2 SH2 (UniProt P62993). The description is as above.
For series [16], the target named is SHP2-C SH2. Described as above.
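Throughout, for SH2 binding enrichment of the phosphorylated peptide, bacterial display: peptide library displayed on the E. coli surface as eCPX fusions, selected cells deep-sequenced, score is each peptide's frequency after selection divided by its frequency in the input.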
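Throughout, for phosphorylation enrichment, bacterial display: 11-residue human phosphosite peptides and single-mutation variants displayed on the E. coli surface, counted by deep sequencing, each peptide's frequency after selection divided by its frequency in the unselected input library; frequency after pTyr selection over input frequency; kinase dosed for 20-30% of maximal phosphorylation in three min.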

FGFR3, sequence (P22607 whole entry, looked up): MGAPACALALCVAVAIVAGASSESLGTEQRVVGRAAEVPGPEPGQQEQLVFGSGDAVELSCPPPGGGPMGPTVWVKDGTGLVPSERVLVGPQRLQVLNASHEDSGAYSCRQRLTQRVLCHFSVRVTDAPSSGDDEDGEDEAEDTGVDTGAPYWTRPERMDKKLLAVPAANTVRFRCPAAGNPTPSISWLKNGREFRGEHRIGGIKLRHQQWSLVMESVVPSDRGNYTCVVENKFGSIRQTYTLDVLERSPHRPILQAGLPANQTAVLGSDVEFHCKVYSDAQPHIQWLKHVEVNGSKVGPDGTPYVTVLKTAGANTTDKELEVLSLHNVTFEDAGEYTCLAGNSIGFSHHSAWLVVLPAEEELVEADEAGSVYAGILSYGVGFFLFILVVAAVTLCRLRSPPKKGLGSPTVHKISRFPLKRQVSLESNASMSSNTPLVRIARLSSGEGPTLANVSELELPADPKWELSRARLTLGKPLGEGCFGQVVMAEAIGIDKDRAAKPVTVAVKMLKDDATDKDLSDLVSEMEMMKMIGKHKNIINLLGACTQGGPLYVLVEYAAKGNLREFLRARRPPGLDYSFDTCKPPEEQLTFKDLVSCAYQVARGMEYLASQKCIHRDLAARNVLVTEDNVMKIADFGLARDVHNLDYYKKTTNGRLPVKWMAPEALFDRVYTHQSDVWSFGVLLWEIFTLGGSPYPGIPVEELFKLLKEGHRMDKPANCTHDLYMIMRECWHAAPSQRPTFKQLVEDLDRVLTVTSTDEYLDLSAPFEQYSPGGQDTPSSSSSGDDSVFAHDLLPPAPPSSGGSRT
Jak2, sequence (O60674 whole entry, looked up): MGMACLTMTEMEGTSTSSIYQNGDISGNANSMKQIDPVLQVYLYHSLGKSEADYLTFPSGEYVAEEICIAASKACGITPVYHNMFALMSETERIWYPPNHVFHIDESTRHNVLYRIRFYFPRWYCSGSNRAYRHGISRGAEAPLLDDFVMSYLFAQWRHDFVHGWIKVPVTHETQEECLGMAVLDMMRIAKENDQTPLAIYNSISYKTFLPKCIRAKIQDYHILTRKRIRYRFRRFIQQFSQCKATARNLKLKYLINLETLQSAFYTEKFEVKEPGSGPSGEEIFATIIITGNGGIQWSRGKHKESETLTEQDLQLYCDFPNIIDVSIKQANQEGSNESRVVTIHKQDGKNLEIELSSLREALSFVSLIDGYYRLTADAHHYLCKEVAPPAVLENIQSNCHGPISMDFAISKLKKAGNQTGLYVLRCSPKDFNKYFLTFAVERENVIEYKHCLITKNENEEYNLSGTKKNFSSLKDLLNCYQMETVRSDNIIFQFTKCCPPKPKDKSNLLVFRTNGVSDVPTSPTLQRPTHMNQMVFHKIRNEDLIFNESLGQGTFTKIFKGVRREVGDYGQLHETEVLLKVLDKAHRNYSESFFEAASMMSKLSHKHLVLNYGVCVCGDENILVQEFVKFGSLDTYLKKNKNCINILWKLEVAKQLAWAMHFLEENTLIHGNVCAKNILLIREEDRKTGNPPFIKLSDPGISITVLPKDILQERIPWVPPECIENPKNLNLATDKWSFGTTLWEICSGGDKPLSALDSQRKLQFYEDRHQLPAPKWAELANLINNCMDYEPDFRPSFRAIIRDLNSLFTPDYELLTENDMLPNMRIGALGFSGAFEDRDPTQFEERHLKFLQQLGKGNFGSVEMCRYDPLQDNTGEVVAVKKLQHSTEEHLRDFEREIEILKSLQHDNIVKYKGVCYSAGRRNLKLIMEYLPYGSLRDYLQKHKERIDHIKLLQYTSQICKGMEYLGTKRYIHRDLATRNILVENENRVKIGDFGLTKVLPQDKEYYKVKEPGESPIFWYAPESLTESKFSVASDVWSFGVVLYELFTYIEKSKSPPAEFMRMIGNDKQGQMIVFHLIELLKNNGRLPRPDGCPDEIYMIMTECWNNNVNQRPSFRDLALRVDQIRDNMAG
Fes, sequence (P07332 whole entry, looked up): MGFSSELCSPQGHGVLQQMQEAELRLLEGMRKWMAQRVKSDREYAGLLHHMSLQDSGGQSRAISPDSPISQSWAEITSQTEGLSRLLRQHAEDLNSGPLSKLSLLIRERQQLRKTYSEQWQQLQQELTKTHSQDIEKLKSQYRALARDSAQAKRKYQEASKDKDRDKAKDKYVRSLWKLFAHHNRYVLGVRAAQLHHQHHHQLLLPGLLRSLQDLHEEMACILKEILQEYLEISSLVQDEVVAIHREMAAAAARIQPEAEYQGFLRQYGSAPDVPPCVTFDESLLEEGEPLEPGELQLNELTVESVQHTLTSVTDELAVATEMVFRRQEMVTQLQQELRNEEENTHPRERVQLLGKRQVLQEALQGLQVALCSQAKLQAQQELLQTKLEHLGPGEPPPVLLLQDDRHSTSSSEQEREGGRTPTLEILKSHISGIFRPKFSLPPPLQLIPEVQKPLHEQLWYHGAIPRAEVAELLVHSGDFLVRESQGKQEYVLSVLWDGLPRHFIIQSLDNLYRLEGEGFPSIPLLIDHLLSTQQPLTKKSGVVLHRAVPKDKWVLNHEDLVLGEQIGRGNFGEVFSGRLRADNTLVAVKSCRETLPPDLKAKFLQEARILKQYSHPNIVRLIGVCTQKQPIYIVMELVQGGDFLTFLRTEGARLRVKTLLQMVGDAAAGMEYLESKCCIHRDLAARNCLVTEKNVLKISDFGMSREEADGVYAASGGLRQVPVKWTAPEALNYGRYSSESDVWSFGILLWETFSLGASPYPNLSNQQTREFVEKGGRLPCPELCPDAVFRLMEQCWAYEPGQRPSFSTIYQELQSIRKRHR
MERTK, sequence (Q12866 whole entry, looked up): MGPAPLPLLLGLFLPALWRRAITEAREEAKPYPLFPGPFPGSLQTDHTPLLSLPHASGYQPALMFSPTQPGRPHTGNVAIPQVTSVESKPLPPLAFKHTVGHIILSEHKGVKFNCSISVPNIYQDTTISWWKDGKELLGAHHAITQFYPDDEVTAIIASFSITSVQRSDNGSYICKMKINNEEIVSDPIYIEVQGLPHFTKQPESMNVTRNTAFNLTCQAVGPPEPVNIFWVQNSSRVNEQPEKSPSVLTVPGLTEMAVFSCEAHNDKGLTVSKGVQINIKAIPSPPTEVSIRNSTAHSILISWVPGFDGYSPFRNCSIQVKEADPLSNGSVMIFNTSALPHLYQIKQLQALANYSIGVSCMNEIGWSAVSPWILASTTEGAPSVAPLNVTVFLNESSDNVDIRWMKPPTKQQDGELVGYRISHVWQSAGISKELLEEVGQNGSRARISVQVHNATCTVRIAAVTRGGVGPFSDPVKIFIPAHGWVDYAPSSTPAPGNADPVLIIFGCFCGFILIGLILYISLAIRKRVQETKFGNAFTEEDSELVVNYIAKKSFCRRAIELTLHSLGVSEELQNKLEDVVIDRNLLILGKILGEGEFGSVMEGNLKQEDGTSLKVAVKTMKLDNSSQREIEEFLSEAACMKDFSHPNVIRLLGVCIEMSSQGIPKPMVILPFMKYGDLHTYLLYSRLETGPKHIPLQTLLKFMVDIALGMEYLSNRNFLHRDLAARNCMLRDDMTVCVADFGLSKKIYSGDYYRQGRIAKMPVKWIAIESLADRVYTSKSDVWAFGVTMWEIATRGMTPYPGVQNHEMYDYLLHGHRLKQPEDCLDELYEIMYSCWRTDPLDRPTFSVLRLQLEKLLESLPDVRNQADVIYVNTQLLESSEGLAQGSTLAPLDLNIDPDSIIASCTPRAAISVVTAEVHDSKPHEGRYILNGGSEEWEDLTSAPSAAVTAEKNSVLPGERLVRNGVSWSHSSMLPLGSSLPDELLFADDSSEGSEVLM
FGFR1, sequence (P11362 whole entry, looked up): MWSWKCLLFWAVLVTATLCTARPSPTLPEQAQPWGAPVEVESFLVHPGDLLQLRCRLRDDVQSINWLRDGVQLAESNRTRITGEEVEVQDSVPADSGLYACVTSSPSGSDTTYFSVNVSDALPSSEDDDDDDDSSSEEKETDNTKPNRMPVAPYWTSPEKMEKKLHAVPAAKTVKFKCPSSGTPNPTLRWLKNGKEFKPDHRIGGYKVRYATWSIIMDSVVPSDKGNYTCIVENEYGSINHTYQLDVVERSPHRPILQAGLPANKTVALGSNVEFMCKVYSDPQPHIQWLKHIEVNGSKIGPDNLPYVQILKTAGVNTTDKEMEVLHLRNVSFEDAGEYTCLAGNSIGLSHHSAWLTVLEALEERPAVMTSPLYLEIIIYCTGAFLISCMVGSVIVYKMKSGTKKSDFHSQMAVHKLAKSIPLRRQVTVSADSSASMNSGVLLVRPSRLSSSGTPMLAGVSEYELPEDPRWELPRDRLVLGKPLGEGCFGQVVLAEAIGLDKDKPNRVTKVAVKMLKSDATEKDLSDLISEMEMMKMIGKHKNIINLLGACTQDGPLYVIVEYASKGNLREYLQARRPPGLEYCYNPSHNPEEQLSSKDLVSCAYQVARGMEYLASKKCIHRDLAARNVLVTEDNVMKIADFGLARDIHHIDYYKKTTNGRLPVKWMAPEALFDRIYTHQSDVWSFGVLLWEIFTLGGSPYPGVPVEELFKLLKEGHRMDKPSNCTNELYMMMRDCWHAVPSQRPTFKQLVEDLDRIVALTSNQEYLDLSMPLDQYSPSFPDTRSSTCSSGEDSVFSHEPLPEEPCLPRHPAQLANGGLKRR
Grb2 SH2, sequence (P62993 whole entry, looked up): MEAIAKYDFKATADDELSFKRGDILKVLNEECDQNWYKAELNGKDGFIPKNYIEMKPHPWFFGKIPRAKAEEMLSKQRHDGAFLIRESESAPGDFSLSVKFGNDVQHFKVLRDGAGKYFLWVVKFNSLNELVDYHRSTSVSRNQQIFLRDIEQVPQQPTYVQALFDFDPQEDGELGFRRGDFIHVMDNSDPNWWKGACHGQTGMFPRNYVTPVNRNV

For NVKGIYAVGDV [GSR_Y371], the phosphorylation enrichment came out at 0.572 in series [1]; 0.714 in [2]; 0.619 in [3]; 0.521 in [4]; 1.31 in [5]; 4.37 in series [6]. Besides, the phosphorylation enrichment was determined as 3.73 in [7]; 0.564 in series [8]; 0.865 in [9]; 0.66 in series [10]; 3.55 in series [11]; 0.574 in [12]. Also, in [13], the phosphorylation enrichment came to 1.44. The SH2 binding enrichment in series [14] turned out to be 0.533; in series [15], 0.741; in series [16], 0.738.
Turning to RQGKDYIGAIP [KDR_Y951_V952I], the phosphorylation enrichment in [1] was 0.462; in [2] it was 0.804; in series [3], 0.399; in series [4], 0.596; in series [5] it was 0.813; in series [6], 0.715. In addition, the phosphorylation enrichment in series [7] was 0.837; in series [8], 0.62; in series [9], 0.764; in [10] it was 1.14; in series [11] it was 0.696; in series [12] it was 0.547. The phosphorylation enrichment in [13] is 1.88. In addition, the SH2 binding enrichment was 0.428 in [14], 0.904 in series [15] and 0.646 in [16].
With YSSLGYPPPEG [ZSWIM4_Y87], the phosphorylation enrichment in series [1] is 0.67; in series [2], 0.741; in series [3] it was 0.511; in [4], 1.06; in series [5] it was 7.49; in [6], 2.36. Moreover, the phosphorylation enrichment in [7] was found to be 1.22; in [8], 0.508; in [9], 0.793; in series [10], 0.568; in series [11], 1.66; in series [12], 0.821. In addition, the phosphorylation enrichment in series [13] worked out at 0.66. Moreover, the SH2 binding enrichment in [14] was 3.02; in series [15] it was 1.04; in [16], 16.1.
With KELAPYDENRF [RPS19_Y48_W52R], the phosphorylation enrichment is 0.579 in series [1]; 1.05 in [2]; 0.594 in [3]; 0.48 in series [4]; 0.5 in series [5]; 0.485 in series [6]. In addition, the phosphorylation enrichment in series [7] stood at 0.577; in series [8] it was 0.553; in series [9] it was 1.36; in [10] it was 1.05; in series [11], 0.512; in [12] it was 0.79. Besides, the phosphorylation enrichment in series [13] was 0.983. Also, the results for the SH2 binding enrichment in [14], in series [15] and in series [16] were 0.605, 0.896 and 1.39, respectively.
For KRFRIYHLAIS [BRCA2_Y3009_T3013I_YF], the phosphorylation enrichment in [1] worked out at 0.48; in series [2] it was 0.899; in [3], 0.612; in series [4], 0.644; in series [5], 0.484; in series [6] it was 0.55. Further, the phosphorylation enrichment in [7] was 0.448; in series [8], 0.524; in [9] it was 0.942; in series [10], 0.86; in series [11] it was 0.494; in series [12], 0.625. In series [13], the phosphorylation enrichment came to 1.38. Besides, the SH2 binding enrichment was found to be 1.56 in series [14], 1.81 in series [15] and 1.43 in series [16].
Regarding ERIEFYELNKK [PMM2_Y145_D148N], the phosphorylation enrichment in series [1] came out at 0.619; in series [2], 0.968; in [3] it was 0.542; in series [4], 0.489; in series [5] it was 0.506; in series [6], 0.497. In addition, the phosphorylation enrichment in series [7] turned out to be 0.507; in series [8], 0.71; in [9], 0.844; in series [10] it was 0.731; in series [11] it was 0.486; in series [12], 0.541. Besides, in series [13], the phosphorylation enrichment stood at 0.486. Moreover, the SH2 binding enrichment in series [14] is 0.467; in series [15] it was 0.822; in series [16] it was 0.492.
Turning to GVRYIYTIDGS [DCX_Y105], the phosphorylation enrichment came to 0.415 in [1]; 1.09 in series [2]; 0.6 in series [3]; 0.487 in [4]; 0.405 in series [5]; 1.76 in [6]. The phosphorylation enrichment came to 1.86 in series [7]; 0.552 in series [8]; 1.31 in series [9]; 0.937 in series [10]; 0.783 in series [11]; 0.743 in [12]. Further, in series [13], the phosphorylation enrichment was 0.687. In addition, the figures for the SH2 binding enrichment in series [14], in series [15] and in series [16] were 0.67, 0.943 and 17.4, respectively.
